Results published in US20240084023A1 (NGM BIOPHARMACEUTICALS, published 2024).
One block for each binder: values may come before it.

What was measured:
[1] = target: full-length human GCGR on CHO cells (human, UniProt P47871 26-477); experiment: cell-based or functional assay
[2] = target: T1, soluble human GCGR extracellular domain (human, UniProt P47871 26-136, limits assumed); experiment: Biacore SPR, captured antibody, soluble human GCGR extracellular domain as analyte
T1 construct: also called soluble GCGR
Method: In some experiments, supernatants were screened for binding to human GCGR using a Biacore SPR system. Briefly, anti-mouse Fc antibody (Sigma-Aldrich) was immobilized on all four flow cells of a CM5 chip using amine coupling reagents (GE Healthcare LifeSciences). Hybridoma supernatants were diluted three-fold with PBS-P buffer (PBS containing 0.005% P20) and injected for 30 seconds overflow cells 2, 3 and 4 to capture the test antibodies and using flow cell 1 as a reference. The next step was an injection of soluble human GCGR extracellular domain (100 nM in PBS-P buffer) at a flow rate of 50 μL/min and monitoring of the binding kinetics at 25° C. Kinetic data were collected over time and fit using the simultaneous global fit equation to yield affinity constants (KD values) for each antibody.

[3] = target: T1, soluble human GCGR extracellular domain; experiment: Octet epitope binning; antibody in solution on GCGR ECD held by immobilized 1A2 (competitor)
Method: (§1) KD values for exemplary antibodies were derived using ForteBio software. Exemplary antibodies 6B5, 13G19, 14E9, 14F4, 4F8, 1G7, l A8, I H7, 1A2, 1B4, 1C1, 1H2, 1C3, and 1D2 were immobilized on biosensor tips. Soluble human GCGR extracellular domain (500 nM) was incubated with the antibodies for 3 minutes. […] The biosensor tips with bound antibody-GCGR complex were then dipped in 61B5, 5B11, or 3H-15 antibody solution and the change in signal measured as a nm shift. If the antibody in solution recognized the same epitope as the antibody immobilized on the chip surface, then <0.1 nm shift in signal (noise level of Octet) would be observed. If the antibody in solution recognized a distinct epitope relative to the immobilized antibody, an increase in signal of >0.15 nm shift would be observed. In the latter scenario, the antibody in solution could bind to the immobilized antibody-GCGR complex (presumably to a different epitope) resulting in the observed increase in signal.

[4] = target: T1, soluble human GCGR extracellular domain; experiment: Octet epitope binning; antibody in solution on GCGR ECD held by immobilized 1A8 (competitor)
Method: as §1

[5] = target: T1, soluble human GCGR extracellular domain; experiment: Octet epitope binning; antibody in solution on GCGR ECD held by immobilized 1B4 (competitor)
Method: as §1

[6] = target: T1, soluble human GCGR extracellular domain; experiment: Octet epitope binning; antibody in solution on GCGR ECD held by immobilized 1C1 (competitor)
Method: as §1

[7] = target: T1, soluble human GCGR extracellular domain; experiment: Octet epitope binning; antibody in solution on GCGR ECD held by immobilized 1C3 (competitor)
Method: as §1

[8] = target: T1, soluble human GCGR extracellular domain; experiment: Octet epitope binning; antibody in solution on GCGR ECD held by immobilized 1D2 (competitor)
Method: as §1

[9] = target: T1, soluble human GCGR extracellular domain; experiment: Octet epitope binning; antibody in solution on GCGR ECD held by immobilized 1G7 (competitor)
Method: as §1

[10] = target: T1, soluble human GCGR extracellular domain; experiment: Octet epitope binning; antibody in solution on GCGR ECD held by immobilized 1H2 (competitor)
Method: as §1

[11] = target: T1, soluble human GCGR extracellular domain; experiment: Octet epitope binning; antibody in solution on GCGR ECD held by immobilized 1H7 (competitor)
Method: as §1

[12] = target: T1, soluble human GCGR extracellular domain; experiment: Octet epitope binning; antibody in solution on GCGR ECD held by immobilized 4F8 (competitor)
Method: as §1

[13] = target: T1, soluble human GCGR extracellular domain; experiment: Octet epitope binning; antibody in solution on GCGR ECD held by immobilized 6B5 (competitor)
Method: as §1

[14] = target: T1, soluble human GCGR extracellular domain; experiment: Octet epitope binning; antibody in solution on GCGR ECD held by immobilized 13G9 (competitor)
Method: as §1

[15] = target: T1, soluble human GCGR extracellular domain; experiment: Octet epitope binning; antibody in solution on GCGR ECD held by immobilized 14E9 (competitor)
Method: as §1

[16] = target: T1, soluble human GCGR extracellular domain; experiment: Octet epitope binning; antibody in solution on GCGR ECD held by immobilized 14F4 (competitor)
Method: as §1

Chain of full-length human GCGR on CHO cells (P47871 26-477): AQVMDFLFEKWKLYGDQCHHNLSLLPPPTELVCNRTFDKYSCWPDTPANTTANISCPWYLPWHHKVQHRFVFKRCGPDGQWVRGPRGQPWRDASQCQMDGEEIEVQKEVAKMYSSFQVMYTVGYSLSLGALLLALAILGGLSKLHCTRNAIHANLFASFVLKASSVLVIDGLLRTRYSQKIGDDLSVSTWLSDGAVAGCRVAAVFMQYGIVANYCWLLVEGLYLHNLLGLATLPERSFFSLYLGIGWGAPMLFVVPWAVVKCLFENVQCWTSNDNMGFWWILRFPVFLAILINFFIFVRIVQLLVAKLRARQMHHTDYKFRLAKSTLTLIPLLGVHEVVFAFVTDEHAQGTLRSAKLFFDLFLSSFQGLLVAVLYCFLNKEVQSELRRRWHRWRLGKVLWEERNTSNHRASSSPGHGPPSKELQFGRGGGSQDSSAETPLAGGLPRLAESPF
T1 sequence (P47871 26-136 limits assumed): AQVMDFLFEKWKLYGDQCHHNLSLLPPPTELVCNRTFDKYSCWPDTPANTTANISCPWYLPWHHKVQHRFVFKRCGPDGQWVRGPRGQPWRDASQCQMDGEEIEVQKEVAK

cAMP assay-1 IC50 [1]: 7.22 nM
Kd [2]: 1.2 nM
Shift on Octet by Antibody in Solution (nm) [3]: < 0.05 nm
Shift on Octet by Antibody in Solution (nm) [4]: < 0.05 nm
Shift on Octet by Antibody in Solution (nm) [5]: < 0.05 nm
Shift on Octet by Antibody in Solution (nm) [6]: < 0.05 nm
Shift on Octet by Antibody in Solution (nm) [7]: < 0.05 nm
Shift on Octet by Antibody in Solution (nm) [8]: < 0.05 nm
Shift on Octet by Antibody in Solution (nm) [9]: < 0.05 nm
Shift on Octet by Antibody in Solution (nm) [10]: < 0.05 nm
Shift on Octet by Antibody in Solution (nm) [11]: < 0.05 nm
Shift on Octet by Antibody in Solution (nm) [12]: < 0.05 nm
Shift on Octet by Antibody in Solution (nm) [13]: < 0.05 nm
Shift on Octet by Antibody in Solution (nm) [14]: < 0.05 nm
Shift on Octet by Antibody in Solution (nm) [15]: < 0.05 nm
Shift on Octet by Antibody in Solution (nm) [16]: < 0.05 nm
B1: anti-GCGR antibody 5B11 (antibody, V domains shown)
VH: QVQLQQSGAELVKPGASVKLSCKASGNTFTSHWMHWVKQRPGQGLEWIGMSHPNSGSSNYSGKFKSKATLTVDRSSSTAYMQLNSLTSEDSAVYYCARTDYDYDGDYWGQGTTLTVSS
VL: DVVLTQTPLSLPVNIGDQASISCKSSKSLLNSDGLTYLDWYLQKPGQSPQLLIYLVSNRFSGVPDRFSGSGSGTDFTLKISRVEADDLGVYYCFQSNFLPLTFGAGTKLELK
notes: mouse hybridoma monoclonal antibody

cAMP assay-1 IC50 [1]: 6.42 nM
cAMP assay-2 IC50 [1]: 13.6 nM
Kd [2]: 1.4 nM
B2: anti-GCGR antibody 1C3 (antibody, V domains shown)
VH: EVQLQQSGPELVKPGASVKMSCKASGYTFTSSVMHWVKQKPGQALEWIGYINPYNDGTKYNENFKGKATLTSDRSSTTAYMELSSLTSEDSAVYYCVTGAGYDRGPMAMDYWGQGTSVTVSS
VL: NIVLTQSPASLAVSLGQRATISCRASESVDSYGDSFVHWYQQKPGQPPKLLIYFASNLESGVPARFSGSGSRTDFTLTIDPVEADDTATYYCQQNNEVPFTFGSGTKLELK
notes: as for B1

cAMP assay-1 IC50 [1]: 3.78 nM
Kd [2]: 3.7 nM
B3: anti-GCGR antibody 1H2 (antibody, V domains shown)
VH: QVQLQQPGAELVKPGASVKMSCKVSGYTFTSYWITWVKQRPGQGLEWIGDIHPGGGDTNYNKKFKSKATLTVDTSSSTAYMQLSSLTSEDSAVYHCTSDDNYVGFTYWGQGTLVTVSA
VL: DVLMTQTPLSLPVSLGDQASISCRSSQTIIHSDGNTYLEWYLQKPGQSPILLIYKVSNRFSGVPDRFSGSGSGTDFTLKISRVEAEDLGVYYCFQGSHVPWTFGGGTKLEIK
notes: as for B1

cAMP assay-1 IC50 [1]: 7.22 nM
cAMP assay-3 IC50 [1]: 0.99 nM
Kd [2]: 0.25 nM
B4: anti-GCGR antibody 13G9 (antibody, V domains shown)
VH: QVQLQQSGAELVRPGTSVKISCKASGYTFTNYWLGWVKQRPGHGLEWIGDIYPGGDYNNYNGKFKGKATLTADTSSSTAYIQLSSLTSEDSAVYFCVRSDDGYSWGQGTTLTVSS
VL: DVLMTQTPLSLPVSLGDQASISCRSSQSIVDSYGNTYLEWYQQKPGQSPTLLIYKVSNRFAGVPDRFSGSGSGTDFTLKISRVEAEDLGVYYCFQGSHIPWTFGGGTKVEIK
notes: mouse hybridoma monoclonal antibody; also called 13G19

cAMP assay-2 IC50 [1]: 14.3 nM
Kd [2]: 1.9 nM
B5: anti-GCGR antibody 1C1 (antibody, V domains shown)
VH: EVQLQQSGPELVKPGATVKMSCKASGYTFTRNVIHWVKQKPGQGLEWIGYINPYNDGAKYNAKFKGKATVTSDKSSSTAYMELSSLTSEDSAVYYCARWGNYEDFAMDYWGQGTSVTVSS
VL: NIVLTQSPPSLAVSLGQRATISCRASESVDIYGNSYMHWYQQKPGQPPKLLIYLASNLESGVPARFSGSGSRTEFSLTIDPVEAGDAATYYCQQNNEDPFTFGGGTKLEIK
notes: as for B1

cAMP assay-1 IC50 [1]: 6.42 nM
cAMP assay-2 IC50 [1]: 12.3 nM
cAMP assay-3 IC50 [1]: 2.07 nM
Kd [2]: 0.22 nM
Shift on Octet by Antibody in Solution (nm) [3]: < 0.05 nm
Shift on Octet by Antibody in Solution (nm) [4]: < 0.05 nm
Shift on Octet by Antibody in Solution (nm) [5]: < 0.05 nm
Shift on Octet by Antibody in Solution (nm) [6]: < 0.05 nm
Shift on Octet by Antibody in Solution (nm) [7]: < 0.05 nm
Shift on Octet by Antibody in Solution (nm) [8]: < 0.05 nm
Shift on Octet by Antibody in Solution (nm) [9]: < 0.05 nm
Shift on Octet by Antibody in Solution (nm) [10]: < 0.05 nm
Shift on Octet by Antibody in Solution (nm) [11]: < 0.05 nm
Shift on Octet by Antibody in Solution (nm) [12]: < 0.05 nm
Shift on Octet by Antibody in Solution (nm) [13]: < 0.05 nm
Shift on Octet by Antibody in Solution (nm) [14]: < 0.05 nm
Shift on Octet by Antibody in Solution (nm) [15]: < 0.05 nm
Shift on Octet by Antibody in Solution (nm) [16]: < 0.05 nm
B6: anti-GCGR antibody 6B5 (antibody, V domains shown)
VH: QVQLQQSGTELVRPGTSVKISCKASGFTFTNHWLGWVKQRPGHGLEWIGDIYPGGYYINYNEKFKGKATLTADTSSSTAYMQLSSLTSEDSAVYFCARHTNYGSDYWGQGTTLTVSS
VL: DVLMTQIPLSLPVSLGDQASISCRSSQSIVDSYGNTFLEWYLQKPGQSPKLLIYKVSNRLSGVPDRFSGTGAGTDFTLKISRVEAEDLGIYYCFQGSHVPWTFGGGTKLEIK
notes: mouse hybridoma monoclonal antibody; also called 61B5

cAMP assay-3 IC50 [1]: 3.84 nM
Kd [2]: 0.5 nM
B7: anti-GCGR antibody 4F8 (antibody, V domains shown)
VH: QVQLQQSGAELVRPGTSVTMSCKAAGYTFSNYWIGWVKQRPGHGLEWIGDIYPGGFYDNYNDKFKGKATLTTDTSSSTAYMQLSSLTSEDSAIYYCTRSGGLPGAGFTYWGQGTLVTVSA
VL: DVLMTQTPLSLPVSLGDQASISCRSSQHIVYSDGNTYLEWYLQKPGQSPKLLIYKVSNRFSGVPDRFSGSGSGTDFTLEISRVEAEDLGVYYCFQGSHVPWTFGGGTKLEIK
notes: as for B1

cAMP assay-1 IC50 [1]: 16 nM
cAMP assay-3 IC50 [1]: 6.48 nM
Kd [2]: 0.57 nM
B8: anti-GCGR antibody 14F4 (antibody, V domains shown)
VH: QVQLQQSGAELVRPGTSVNMSCKATGYTFTNYWIGWVKQRPGHGLEWIGDIFPGGFYSNYNEKFKGKATLTTDTSSSTGYMQLSSLTSEDSAIYYCARIWDRGFDYWGQGTTLTVSS
VL: DVLMTQSPLSLPVSLGDQASISCRSSQSIVDSYGNTYLEWYLQKPGQSPKLLIYKVSNRFSGVPDRFSGSGSGTDFTLKISRVEAEDRGLYYCFQGSHVPYTFGGGTKLEIK
notes: mouse hybridoma monoclonal antibody; also called 141F4

cAMP assay-1 IC50 [1]: 24.6 nM
cAMP assay-3 IC50 [1]: 1.32 nM
Kd [2]: 0.8 nM
B9: anti-GCGR antibody 14E9 (antibody, V domains shown)
VH: QVQLQQSGAELVRPGTSVKMSCKAAGYTFTNYWIGWVKQRPGHGLEWIGDISPGNYYTNYNAKFKDKVSLTADTSSSTAYMQLSSLTSEDSAIYYCARYDEFAYWGQGTLVTVSA
VL: DVLMTQTPLSLSVSLGDQASISCRSSQSIVHSDGNTYLEWYLQKPGQSPKLLIYKVSNRFSGVPDRFSGSGSGTDFTLKISRVEAEDLGVYYCFQGSHVPWTFGGGTKLEIK
notes: mouse hybridoma monoclonal antibody; also called 13E9
